Experimental data taken from article PMC6310155.

Molecular target: MmRIPK3 (S02-H303) kinase domain, N-terminal histidine tag (mouse)
Assay: SEC

“MmRIPK3 (S02-H303) kinase domain, N-terminal histidine tag (domain or fragment)” was tested, and the stoichiometry N was 2.
